This note sets out measurements from US20200024360A1 (Janssen / Centocor, published 2020).

Assay [1] has as its target T1, recombinant chimpanzee PSMA extracellular domain (ECD) protein (Pan troglodytes, UniProt Q04609 44-750 (human entry)).
T1 construct: also called Chimp PSMA ECD; PSMG8
T1 chain: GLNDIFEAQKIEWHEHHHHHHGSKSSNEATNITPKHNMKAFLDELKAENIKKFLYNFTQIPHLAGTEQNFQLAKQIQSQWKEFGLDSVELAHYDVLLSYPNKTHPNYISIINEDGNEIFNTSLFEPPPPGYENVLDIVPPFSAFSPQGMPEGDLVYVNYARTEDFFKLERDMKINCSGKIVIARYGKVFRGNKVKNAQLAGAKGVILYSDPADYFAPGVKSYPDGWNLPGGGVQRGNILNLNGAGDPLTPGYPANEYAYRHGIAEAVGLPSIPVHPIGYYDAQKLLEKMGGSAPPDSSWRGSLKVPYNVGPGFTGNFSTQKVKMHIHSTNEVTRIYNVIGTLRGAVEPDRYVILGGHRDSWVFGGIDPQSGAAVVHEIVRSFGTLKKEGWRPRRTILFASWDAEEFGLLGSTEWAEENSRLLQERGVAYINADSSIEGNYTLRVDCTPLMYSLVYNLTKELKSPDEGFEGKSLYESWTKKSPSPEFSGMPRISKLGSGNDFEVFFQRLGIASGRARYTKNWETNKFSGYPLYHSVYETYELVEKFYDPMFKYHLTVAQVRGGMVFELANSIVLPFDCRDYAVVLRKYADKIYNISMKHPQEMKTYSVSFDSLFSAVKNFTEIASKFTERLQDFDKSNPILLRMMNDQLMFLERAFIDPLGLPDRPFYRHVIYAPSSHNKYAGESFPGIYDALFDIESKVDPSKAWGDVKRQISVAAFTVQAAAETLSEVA
The assay is described as follows: SPR Biacore 3000, bsAb captured by anti-Fc. The procedure:
Binding to recombinant Chimp PSMA by Biacore. The Affinity measurements using Surface Plasmon Resonance (SPR) were performed using a Biacore 3000 optical biosensor (Biacore-GE Healthcare). A biosensor surface was prepared by coupling anti-Human IgG Fc (Jackson ImmunoResearch Laboratory, cat #109-005-098) to the carboxymethylated dextran surface of a CM-5 chip (Biacore, cat # BR-1000-12) using the manufacturer instructions for amine-coupling chemistry. Approximately 16,000 RU (response units) of anti-Human IgG Fc antibodies were immobilized in each of four flow cells. The kinetic experiments were performed at 25° C. in running buffer (DPBS+0.03% P20+[…]). Dilutions of antigen (recombinant Chimp PSMA, concentration either from 1.2-300 nM or 3.7-900 nM in a 3-fold serial dilution) were prepared in running buffer. About 100 RU of PSMA×CD3 bispecific mAbs were captured on flow cell 2 to 4 of the sensor chip. Flow cell 1 was used as reference surface. Capture of PSMA×CD3 bispecific mAb was followed by a 3 or 5-minute injection (association phase) of antigen (recombinant Chimp PSMA) at 50 μl/min, followed by 15 or 20 minutes of buffer flow (dissociation phase). The chip surface was regenerated by two 18-second injections of 100 mM Phosphoric acid (H₃PO₄, Sigma, cat #7961) at 50 μl/min.
The collected data were processed using BIAevaluation software (Biacore). First, double reference subtraction of the data was performed by subtracting the curves generated by buffer injection from the reference-subtracted curves for analyte injections. Then kinetic analysis of the data was performed using a Langmuir 1:1 binding model with global fit. The result for each PSMA×CD3 bispecific mAb was reported in the format of kₐ (On-rate), kd (Off-rate) and KD (Equilibrium dissociation constant).

Assay [2] has as its target T2, human PSMA (prostate specific membrane antigen), full length (human, UniProt Q04609 1-750).
T2 construct: On LNCaP or C4-2B cells (endogenous) or transduced HEK293F cells; also called FOLH1_HUMAN; hPSMA
The assay is described as follows: FACS, whole cell binding, LNCaP. The procedure:
PSMA×CD3 bispecific antibodies were tested for binding to PSMA positive cell lines LNCAP, human PSMA-HEK, Chimpanzee-PSMA-HEK and Cynomolgous monkey PSMA-HEK. To assess the binding capabilities of the PSMA bispecific antibodies, the cell-binding assay was utilized (described previously). Briefly, PSMA expressing tumor cells are bound by bispecific antibodies at known concentrations and the bound antibody is detected by an anti-human kappa light chain PE conjugated detection reagent (Invitrogen). The Mean Fluorescents Intensity (MFI) is the measure of bound bispecific antibody. The MFI is converted to a relative EC₅₀. EC₅₀ is a commonly used dose-response curve, where the half maximal effective concentration or the EC₅₀ point is defined as the inflection point of the curve. EC₅₀ s were determined by measuring cell bound bispecific and known concentrations. […] The dose response curves were then diluted down to that of background or no bispecific binding. The inflection point of this curve reflects the EC₅₀ point. The calculated EC₅₀ is determined by taking the ug/ml amount of bispecific antibody at the EC₅₀ point and converting it to a molarity value based on the MW of the bispecific antibody. Bispecific antibodies were normalized for protein concentration and then incubated with the same number of cells expressing either human or cyno PSMA. The MFI at each concentration was collected by flow cytometry and plotted as a function of concentration. Data was transformed via log 10 and then plotted. Nonlinear regression of binding curves was done to determine EC₅₀ s. These relative values were used for ranking PSMA binding to target cells.
A general note: A flow cytometer gives signals particle by particle.

T2 sequence (Q04609 whole entry): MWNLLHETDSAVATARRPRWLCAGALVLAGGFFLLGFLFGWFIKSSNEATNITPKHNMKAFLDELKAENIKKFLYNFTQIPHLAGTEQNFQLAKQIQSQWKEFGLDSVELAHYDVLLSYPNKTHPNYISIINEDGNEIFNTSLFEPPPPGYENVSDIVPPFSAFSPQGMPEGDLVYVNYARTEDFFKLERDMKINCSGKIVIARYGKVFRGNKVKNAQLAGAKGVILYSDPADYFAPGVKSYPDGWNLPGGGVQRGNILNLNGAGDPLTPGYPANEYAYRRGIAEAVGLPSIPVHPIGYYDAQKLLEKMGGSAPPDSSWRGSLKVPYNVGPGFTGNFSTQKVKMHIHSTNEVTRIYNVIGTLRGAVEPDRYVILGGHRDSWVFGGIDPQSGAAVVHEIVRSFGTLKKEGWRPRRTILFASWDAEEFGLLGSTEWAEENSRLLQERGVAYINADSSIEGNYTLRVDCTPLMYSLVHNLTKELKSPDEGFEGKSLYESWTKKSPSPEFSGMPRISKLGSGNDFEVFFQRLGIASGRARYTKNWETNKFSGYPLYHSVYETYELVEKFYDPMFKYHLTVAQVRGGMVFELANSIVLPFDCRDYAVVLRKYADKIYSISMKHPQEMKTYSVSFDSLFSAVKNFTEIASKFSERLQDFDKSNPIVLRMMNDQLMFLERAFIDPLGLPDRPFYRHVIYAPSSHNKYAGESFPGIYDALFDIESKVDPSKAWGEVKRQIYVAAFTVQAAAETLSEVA

B1: PS3B27 (bispecific antibody, human IgG4 S228P, kappa, lambda, F234A L235A)
heavy 1: not shown
light 1: not shown
heavy 2: EVQLVESGGGLVQPGGSLRLSCAASGFTFNTYAMNWVRQAPGKGLEWVARIRSKYNNYATYYAASVKGRFTISRDDSKNSLYLQMNSLKTEDTAVYYCARHGNFGNSYVSWFAYWGQGTLVTVSSASTKGPSVFPLAPCSRSTSESTAALGCLVKDYFPEPVTVSWNSGALTSGVHTFPAVLQSSGLYSLSSVVTVPSSSLGTKTYTCNVDHKPSNTKVDKRVESKYGPPCPPCPAPEAAGGPSVFLFPPKPKDTLMISRTPEVTCVVVDVSQEDPEVQFNWYVDGVEVHNAKTKPREEQFNSTYRVVSVLTVLHQDWLNGKEYKCKVSNKGLPSSIEKTISKAKGQPREPQVYTLPPSQEEMTKNQVSLTCLVKGFYPSDIAVEWESNGQPENNYKTTPPVLDSDGSFLLYSKLTVDKSRWQEGNVFSCSVMHEALHNHYTQKSLSLSLGK
light 2: QTVVTQEPSLTVSPGGTVTLTCRSSTGAVTTSNYANWVQQKPGQAPRGLIGGTNKRAPGTPARFSGSLLGGKAALTLSGVQPEDEAEYYCALWYSNLWVFGGGTKLTVLGQPKAAPSVTLFPPSSEELQANKATLVCLISDFYPGAVTVAWKADSSPVKAGVETTTPSKQSNNKYAASSYLSLTPEQWKSHRSYSCQVTHEGSTVEKTVAPTECS
notes: IgG4 PAA; PSMA arm chains first, then CD3 arm (F405L, R409K); also called PSMB127 x CD3B219; PS2B27
With B1, in assay [1], the Kd came to 22.4 nM, the koff amounted to 0.002 s⁻¹ and the association rate constant (kon) stood at 89000 M⁻¹ s⁻¹. For the same molecule, a half-maximal effect in assay [2] (EC50) was put at 2.07 µg/mL.

B2: PS3B23 (bispecific antibody, human IgG4 S228P, kappa, lambda, F234A L235A)
heavy 1: not shown
light 1: not shown
heavy 2: EVQLVESGGGLVQPGGSLRLSCAASGFTFNTYAMNWVRQAPGKGLEWVARIRSKYNNYATYYAASVKGRFTISRDDSKNSLYLQMNSLKTEDTAVYYCARHGNFGNSYVSWFAYWGQGTLVTVSSASTKGPSVFPLAPCSRSTSESTAALGCLVKDYFPEPVTVSWNSGALTSGVHTFPAVLQSSGLYSLSSVVTVPSSSLGTKTYTCNVDHKPSNTKVDKRVESKYGPPCPPCPAPEAAGGPSVFLFPPKPKDTLMISRTPEVTCVVVDVSQEDPEVQFNWYVDGVEVHNAKTKPREEQFNSTYRVVSVLTVLHQDWLNGKEYKCKVSNKGLPSSIEKTISKAKGQPREPQVYTLPPSQEEMTKNQVSLTCLVKGFYPSDIAVEWESNGQPENNYKTTPPVLDSDGSFLLYSKLTVDKSRWQEGNVFSCSVMHEALHNHYTQKSLSLSLGK
light 2: QTVVTQEPSLTVSPGGTVTLTCRSSTGAVTTSNYANWVQQKPGQAPRGLIGGTNKRAPGTPARFSGSLLGGKAALTLSGVQPEDEAEYYCALWYSNLWVFGGGTKLTVLGQPKAAPSVTLFPPSSEELQANKATLVCLISDFYPGAVTVAWKADSSPVKAGVETTTPSKQSNNKYAASSYLSLTPEQWKSHRSYSCQVTHEGSTVEKTVAPTECS
notes: IgG4 PAA; PSMA arm chains first, then CD3 arm (F405L, R409K); also called PSMB123 x CD3B219
Consider B2, for which, in assay [1], the Kd was 9.1 nM, the koff was determined as 0.00122 s⁻¹ and the kon is 134000 M⁻¹ s⁻¹.

B3: PS3B30 (bispecific antibody, human IgG4 S228P, kappa, lambda, F234A L235A)
heavy 1: not shown
light 1: not shown
heavy 2: EVQLVESGGGLVQPGGSLRLSCAASGFTFNTYAMNWVRQAPGKGLEWVARIRSKYNNYATYYAASVKGRFTISRDDSKNSLYLQMNSLKTEDTAVYYCARHGNFGNSYVSWFAYWGQGTLVTVSSASTKGPSVFPLAPCSRSTSESTAALGCLVKDYFPEPVTVSWNSGALTSGVHTFPAVLQSSGLYSLSSVVTVPSSSLGTKTYTCNVDHKPSNTKVDKRVESKYGPPCPPCPAPEAAGGPSVFLFPPKPKDTLMISRTPEVTCVVVDVSQEDPEVQFNWYVDGVEVHNAKTKPREEQFNSTYRVVSVLTVLHQDWLNGKEYKCKVSNKGLPSSIEKTISKAKGQPREPQVYTLPPSQEEMTKNQVSLTCLVKGFYPSDIAVEWESNGQPENNYKTTPPVLDSDGSFLLYSKLTVDKSRWQEGNVFSCSVMHEALHNHYTQKSLSLSLGK
light 2: QTVVTQEPSLTVSPGGTVTLTCRSSTGAVTTSNYANWVQQKPGQAPRGLIGGTNKRAPGTPARFSGSLLGGKAALTLSGVQPEDEAEYYCALWYSNLWVFGGGTKLTVLGQPKAAPSVTLFPPSSEELQANKATLVCLISDFYPGAVTVAWKADSSPVKAGVETTTPSKQSNNKYAASSYLSLTPEQWKSHRSYSCQVTHEGSTVEKTVAPTECS
notes: IgG4 PAA; PSMA arm chains first, then CD3 arm (F405L, R409K); also called PSMB130 x CD3B219
As to B3, in assay [1], the Kd is 52.3 nM, the koff was 0.00182 s⁻¹ and the kon is 34800 M⁻¹ s⁻¹. The response in assay [2] was half-maximal at 1.2 µg/mL (EC50).

B4: PS3B22 (bispecific antibody, human IgG4 S228P, kappa, lambda, F234A L235A)
heavy 1: not shown
light 1: DIQMTQSPSSLSASVGDRVTITCRASQSIDRWLNWYQQKPGKAPKLLIYAASSLQSGVPSRFSGSGSGTDFTLTISSLQPEDFATYYCQQSPRYPLTFGQGTKVEIKRTVAAPSVFIFPPSDEQLKSGTASVVCLLNNFYPREAKVQWKVDNALQSGNSQESVTEQDSKDSTYSLSSTLTLSKADYEKHKVYACEVTHQGLSSPVTKSFNRGEC
heavy 2: EVQLVESGGGLVQPGGSLRLSCAASGFTFNTYAMNWVRQAPGKGLEWVARIRSKYNNYATYYAASVKGRFTISRDDSKNSLYLQMNSLKTEDTAVYYCARHGNFGNSYVSWFAYWGQGTLVTVSSASTKGPSVFPLAPCSRSTSESTAALGCLVKDYFPEPVTVSWNSGALTSGVHTFPAVLQSSGLYSLSSVVTVPSSSLGTKTYTCNVDHKPSNTKVDKRVESKYGPPCPPCPAPEAAGGPSVFLFPPKPKDTLMISRTPEVTCVVVDVSQEDPEVQFNWYVDGVEVHNAKTKPREEQFNSTYRVVSVLTVLHQDWLNGKEYKCKVSNKGLPSSIEKTISKAKGQPREPQVYTLPPSQEEMTKNQVSLTCLVKGFYPSDIAVEWESNGQPENNYKTTPPVLDSDGSFLLYSKLTVDKSRWQEGNVFSCSVMHEALHNHYTQKSLSLSLGK
light 2: QTVVTQEPSLTVSPGGTVTLTCRSSTGAVTTSNYANWVQQKPGQAPRGLIGGTNKRAPGTPARFSGSLLGGKAALTLSGVQPEDEAEYYCALWYSNLWVFGGGTKLTVLGQPKAAPSVTLFPPSSEELQANKATLVCLISDFYPGAVTVAWKADSSPVKAGVETTTPSKQSNNKYAASSYLSLTPEQWKSHRSYSCQVTHEGSTVEKTVAPTECS
notes: IgG4 PAA; PSMA arm chains first, then CD3 arm (F405L, R409K); also called PSMB122 x CD3B219; PSB22
Take B4: in assay [1], the Kd was 60.4 nM, the off-rate (koff) was 0.001 s⁻¹ and the kon was 16600 M⁻¹ s⁻¹. In assay [2], this molecule showed an EC50 of 2.6 µg/mL.

B5: PS3B25 (bispecific antibody, human IgG4 S228P, kappa, lambda, F234A L235A)
heavy 1: not shown
light 1: not shown
heavy 2: EVQLVESGGGLVQPGGSLRLSCAASGFTFNTYAMNWVRQAPGKGLEWVARIRSKYNNYATYYAASVKGRFTISRDDSKNSLYLQMNSLKTEDTAVYYCARHGNFGNSYVSWFAYWGQGTLVTVSSASTKGPSVFPLAPCSRSTSESTAALGCLVKDYFPEPVTVSWNSGALTSGVHTFPAVLQSSGLYSLSSVVTVPSSSLGTKTYTCNVDHKPSNTKVDKRVESKYGPPCPPCPAPEAAGGPSVFLFPPKPKDTLMISRTPEVTCVVVDVSQEDPEVQFNWYVDGVEVHNAKTKPREEQFNSTYRVVSVLTVLHQDWLNGKEYKCKVSNKGLPSSIEKTISKAKGQPREPQVYTLPPSQEEMTKNQVSLTCLVKGFYPSDIAVEWESNGQPENNYKTTPPVLDSDGSFLLYSKLTVDKSRWQEGNVFSCSVMHEALHNHYTQKSLSLSLGK
light 2: QTVVTQEPSLTVSPGGTVTLTCRSSTGAVTTSNYANWVQQKPGQAPRGLIGGTNKRAPGTPARFSGSLLGGKAALTLSGVQPEDEAEYYCALWYSNLWVFGGGTKLTVLGQPKAAPSVTLFPPSSEELQANKATLVCLISDFYPGAVTVAWKADSSPVKAGVETTTPSKQSNNKYAASSYLSLTPEQWKSHRSYSCQVTHEGSTVEKTVAPTECS
notes: IgG4 PAA; also called PSMB87 x CD3B219
For B5, in assay [1], the Kd was determined as 16.4 nM, the koff worked out at 0.00108 s⁻¹ and the kon is 65900 M⁻¹ s⁻¹.

A word on the Kd: it is a measure of binding affinity in units of concentration. What is called koff is the rate constant with which the complex falls apart. A word on the kon: it is the rate constant with which the complex forms. As usually defined, the EC50 is the concentration that produces a half-maximal response. A low value points to greater potency.
